Source: US20210292393A1
Values joined by “and” are separate entries in the source; they are usually repeats but may differ in a detail not shown here. Equal entries are not always repeated. Where two headings read alike, the source gives them in different places.

Assays:
Details in all cases: remark: other sources report otherwise
[1] = target: SARS-CoV-2 spike protein (SARS-CoV-2), P0DTC2
[2] = target: SARS-CoV-2 spike (S) protein (SARS-CoV-2), P0DTC2
[3] = target: SARS-CoV-2 full length spike protein, wild type, expressed on the surface of CHO cells (SARS-CoV-2), P0DTC2
[4] = target: SARS-CoV-2 spike protein (SARS-CoV-2), P0DTC2; assay: HT-SPR, Carterra LSA; mAb coupled to chip, antigen injected; 1:1 fit
[5] = target: SARS-CoV-2 full length spike protein (wild-type), conjugated to optically encoded beads (SARS-CoV-2), P0DTC2
[6] = target: SARS-CoV-2 full length spike protein (wild type) (SARS-CoV-2), P0DTC2

B1: antibody 464 (antibody, V domains shown)
VH: QVQLVQSGAEVKKPGASVKVSCKVSGYTLTELSMHWVRQAPGKGLEWMGGFDPEDGETIYAQKFQGRVTMTEDTSTDTAYMELSSLRSEDTAVYYCATARAFGVANWFDPWGQGTLVTVSS
VL: QSVLTQPPSASGTPGQRVTISCSGSSSNIGSNYVYWYQQLPGTAPKLLIYRNNQRPSGVPDRFSGSKSGTSASLAISGLRSEDEADYYCAAWDDSLSGLYVFGTGTKVTVL
- Kd [1]: 4.58 nM
- koff [1]: 0.000512 s⁻¹
- kon [1]: 112000 M⁻¹ s⁻¹

B2: antibody 383 (antibody, V domains shown)
VH: EVQLVESGGGLVQPGGSLRLSCAASGFTFSSYDMHWVRQATGKGLEWVSTIGTAGDTYYPGSVKGRFTISRENAKNSLYLQMNSLRAGDTAVYYCARVAYSSSFVYWYFDLWGRGTLVTVSS
VL: DIQMTQSPSSLSASIGDRVTITCRASQSISSYLNWYQQKPGKAPNLLIYAASSLQSGVPSRFSGSGSGTDFTLTISSLQPEDFATYYCQQSYTTPLYTFGQGTKLEIK
- Kd [2]: 0.772 nM
- koff [2]: 7.09e-05 s⁻¹
- kon [2]: 91800 M⁻¹ s⁻¹

B3: antibody 524 (antibody, V domains shown)
VH: QVQLVESGGGVVQPGRSLRLSCAASGFTFSSYAMHWVRQAPGKGLEWVAVISYDGSNKYYADSVKGRFTISRDNSKNTLYLQMNSLRAEDTAVYYCAKAGGGSYYRGFDYWGQGTLVTVSS
VL: QSVLTQPPSVSAAPGQKVTISCSGSNSNIGNNYVSWYQQLPGSAPKLLIYDNDKRPSGIPDRFSGSKSGTSATLGITGLQTGDEADYYCGAWDSSLTALVFGGGTKLTVL
- median fluorescence fold over isotype control (fold over isotype) [3]: 0.58 and 0.55
- Kd [4]: 34.6 nM
- koff [4]: 0.00272 s⁻¹
- kon [4]: 78600 M⁻¹ s⁻¹

B4: antibody 551 (antibody, V domains shown)
VH: EVQLVESGGGLVQPGGSLRLSCAASGFTFSSYWMSWVRQAPGKGLEWVANINQDGSDKYYVDSVKGRFTISRDNAKNSLYLQMNSLRAEDTAVYYCARAPGWAAAPTFDYWGQGTLVTVSS
VL: QSALTQPRSVSGSPGQSVTISCTGTSSDVGGYNYVSWYQQHPGKAPKFMIYDVSKRPSGVPDRFSGSKSGNTASLTISGLQAEDEADYYCCSYAGSYTLVVFGGGTKLTVL
- median fluorescence fold over isotype (fold over isotype) [5]: 649

B5: antibody 493 (antibody, V domains shown)
VH: EVQLVESGGGLIQPGRSLRLSCAASGFTVSITYMSWVRQAPGKGLEWVSLIYSGGSSYYADSVKGRFTISRDNSKNTLYLQMNSLRAEDTAVYYCATTMVRGVIISYYYGMDVWGQGTTVTVSS
VL: QSALTQPASVSGSPGQSITISCTGTSSDVGGYNYVSWYQQHPGKAPKLMIYEVSNRPSGVSNRFSGSKSGNTASLTISGLQAEDEADYYCSSYTSSSTLVFGGGTKLTVL
- median fluorescence fold over isotype control (fold over isotype) [3]: 1.26 and 1.1
- Kd [4]: < 0.133 nM
- koff [4]: < 1e-05 s⁻¹

B6: antibody 507 (antibody, V domains shown)
VH: QVQLQESGPGLVKPSGTLSLTCAVSGGSISSSNWWSWVRQPPGKGLEWIGEIYHSGNTNYNPSLKSRVTISVDKSKNQFSLKLSSVTAADTAVYYCARREWLRLFDYWGQGTLVTVSS
VL: QSALTQPASVSGSPGQSITISCTGTSSDVGSYNLVSWYQQHPGKAPKLMIYEVSKRPSGVSNRFSGSKSGNTASLTISGLQAEDEADYYCCSYAGSSTYVFGTGTKVTVL
- median fluorescence fold over isotype (fold over isotype) [5]: 571
- median fluorescence fold over isotype control (fold over isotype) [3]: 1.51

B7: antibody 374 (antibody, V domains shown)
VH: QVQLQESGPGLVKPSGTLSLTCAVSGGSISSSKWWSWVRQPPGKGLEWIGEIYHSGSTNYNPSLKSRVTISVDKSKNQFSLKLSSVTAADTAVYYCARRELGEGTFTYWGQGTLVTVSS
VL: not shown
- Kd [2]: 1.58 nM
- koff [2]: 7.86e-05 s⁻¹
- kon [2]: 49600 M⁻¹ s⁻¹

B8: antibody 436 (antibody, V domains shown)
VH: QVQVVESGGGVVQPGRSLRLSCAASGFTFSSYAMHWVRQAPGKGLEWVAVISYDGNNEYYVDPVKGRFTISRDNSKNTLYLQMNSLRAEDTALYYCATSREAIVVGGILDYWGQGTLVTVSS
VL: DIQMTQSPSSLSASVGDRVTITCQASHDINNFLNWYQQKPGQAPKLLIYDASNLETGVPSRFSGSGSGTDFTFTISSLHPEDVATYYCQQYDGLPRYVTFGQGTKLEIR
- Kd [1]: 19.4 nM
- koff [1]: 0.000352 s⁻¹
- kon [1]: 18200 M⁻¹ s⁻¹

B9: antibody 495 (antibody, V domains shown)
VH: QITLKESGPTLVKPTQTLTLTCTFSGFSLSTSGVGVGWIRQPPGKALEWLALIYWDDDKRYSPSLKSRLTITKDTSKNQVVLIMTNMDPVDTATYYCAHRDSSSWFDLDAFDIWGQGTMVIVSS
VL: QSVLTQPPSVSEAPRQRVTISCSGSSSNIGNNAVNWYQQLPGKAPKLLIYYDDLLPSGVSDRFSGSKSGTSASLAISGLQSEDEADYYCAAWDDRLNGPVFGGGTKLTVL
- median fluorescence fold over isotype control (fold over isotype) [3]: 1.23 and 0.83
- Kd [4]: 0.0718 nM
- koff [4]: 1.55e-05 s⁻¹
- kon [4]: 216000 M⁻¹ s⁻¹

B10: antibody 267 (antibody, V domains shown)
VH: EVHLVQSGAEMKKPGATVKISCKVSGNTFIDHYIQWVQQAPGKGFEWMGLVDPEDGETIYAEKFQGRVTITADTSRDTAYMELSSLKSEDTAVYYCGTHGDYLDYWGQGTLVTVSS
VL: FYELTQPSSVSVSPGQTALITCSGDVVAKKYARWFQQKAGQAPVLVIYKDTERPSGIPERISGSSSGTTVTLTISGAQVEDEADYYCYSATDNNLVFGGGTKVTVL
- binding signal, bead assay (fold over isotype) [6]: 312

B11: antibody 382 (antibody, V domains shown)
VH: QVQLVESGGGVVQPGRSLRLSCAASGFTFSNYGMHWVRQAPGKGLEWMTVISFDGRNKYYADSVKGRFTISRDNSKNTLFLQMNSLTTEDTALYFCASGRRPRYSSGWSFDYWGQGTLVTVSS
VL: DIQMTQSPSSLSASVGDRVTITCQASQDIGNYLNWYQQKLGKAPNLLIYDASNLETGVPSRFSGSGSGTDFTFTINSLQPEDTATYYCQQYDDPSITFGQGTRLEIK
- Kd [2]: 11.2 nM
- koff [2]: 0.00134 s⁻¹
- kon [2]: 120000 M⁻¹ s⁻¹

B12: antibody 490 (antibody, V domains shown)
VH: QVQLQESGPGLVKPSGTLSLTCAVSGGSISSSNWWSWVRQPPGKGLEWIGELYHSGSTNYNPSLKSRVTISVDKSKNQFSLKLSSVTAADTAVYYCARVGPYYYDSSGYYNYFDYWGPGTLVTVSS
VL: EIVLTQSPATLSLSPGERATLSCRASQSVSSYLAWYQQKPGQAPRLLIYDASNRATGIPARFSGSGSGTDFTLTISSLEPEDFAVYYCQQRSNWPPGITFGQGTRLEIK
- median fluorescence fold over isotype control (fold over isotype) [3]: 1.07 and 1.28 and 1.08

B13: antibody 270 (antibody, V domains shown)
VH: QVQLVQSGAEVKRPGTSVKVSCKTSGYTFTDHFIHWVRQAPGRRLEWMGWINPNSGGTNYAQNFQGRVTMTRDTSITTAYMDLTRLTSDDTAIYYCAREAAYGSGNLNWFDPWGQGTRVTVSS
VL: NFMLTQPHSVSESPGKTVTISCTGSSGSIAANYVHWYQQRPGSAPRTVIYEDNQRPSGVPDRFSGSIDSSSNSASLTISGLKTEDEADYYCQSYDGDSWVFGGGTKLTVL
- binding signal, bead assay (fold over isotype) [6]: 305

B14: antibody 499 (antibody, V domains shown)
VH: EVQLVESGGGLVKPGGSLRLSCAASGFTFSSYSMNWVRQAPGKGLEWVSSISSSSSYIYYADSVKGRFTISRDNAKNSLYLQMNSLRAEDTAVYYCARAPAGIVVGPDYWGQGTLVTVSS
VL: NFMLTQPHSVSESPGKTVTISCTGSSGSIASNYVQWYQQRPGSAPTTVIFEDNQRPSGVPDRFSGSIDSSSNSASLTISGLKTEDEADYYCQSYHSSNPHVVFGGGTKLTVL
- median fluorescence fold over isotype control (fold over isotype) [3]: 1.35 and 0.9
- Kd [4]: 0.297 nM
- koff [4]: 1.88e-05 s⁻¹
- kon [4]: 63300 M⁻¹ s⁻¹

B15: antibody 304 (antibody, V domains shown)
VH: EVQLLESGGGLVQPGGSLRLSCAASGFTFSTYAMSWVRQAPGKGLEWVSAISGSGGSTYYADSVKGRFTISRDNSKNTLYLQMNSLRAEDTAVYYCASGYSPDYWGQGTLVTVSS
VL: AIQMTQSPSSLSASVGDRVTITCRASQGIRNDLGWYQQKPGKAPKLLIYAASSLQSGVPSRFSGSGSGTDFTLTISSLQPEDFATYYCLQDYNYPRTFGQGTKVEIK
- binding signal, bead assay (fold over isotype) [6]: 1.22 and 1.17 and 1.09
- Kd [2]: 3.14 nM
- koff [2]: 0.000274 s⁻¹
- kon [2]: 87300 M⁻¹ s⁻¹

B16: antibody 259 (antibody, V domains shown)
VH: EVQLVQSGAEVKKPGATVKISCKVSGYTFTDYYMHWVQQAPGKGLEWMGLVDPEDGETIYAEKFQGRVTITADTSTDTAYMELSSLRSEDTAVYYCATDLLSWKLYCSGGSCPQMDVWGQGTTVTVSS
VL: DIQMTQSPSSLSASVGDRVTITCRASQGIRNDLGWYQQKPGKAPKRLIYAASSLQSGVPSRFSGSGSGTEFTLTISSLQPEDFATYYCLQHNSYPQTFGQGTKLEIK
- binding signal, bead assay (fold over isotype) [6]: 275

B17: antibody 505 (antibody, V domains shown)
VH: EVQLVESGGGLVKPGGSLRLSCAASGFTFSSYSMNWVRQAPGKGLEWVSSISSSSSYIYYADSVKGRITISRDNAKNSLYLQMNSLRAEDTAVYYCAREYPNFRAEWLLSPYGMDVWGQGTTVTVSS
VL: QSALTQPASVSGSPGQSITISCTGTSSDVGSYNLVSWYQQHPGKAPKLMIYEVSKRPSGVSNRFSGSKSGNTASLTISGLQAEDEADYYCCSYAGSSTSVKVFGTGTKVTVL
- median fluorescence fold over isotype (fold over isotype) [5]: 658
- median fluorescence fold over isotype control (fold over isotype) [3]: 1.55

B18: antibody 521 (antibody, V domains shown)
VH: QVQLVESGGGVVQPGRSLRLSCAASGFTFSSYGMHWVRQAPGKGLEWVAVIWYDGSNKYYADSVKGRFTISRDNSKNTLYLQMNSLRAEDTAVYYCAREGNDYGDYGEWELLGYFDYWGQGTLVTVSS
VL: SYELTQPPSVSVSPGQTARITCSGDALPKKYAYWYQQKSGQAPVLVIYEDSKRPSGIPERFSGSSSGTMATLTISGAQVEDEADYYCYSTDSSGNHRRVFGGGTKLTVL
- median fluorescence fold over isotype control (fold over isotype) [3]: 2.42 and 0.86
- Kd [4]: 9.9 nM
- koff [4]: 0.000299 s⁻¹
- kon [4]: 30200 M⁻¹ s⁻¹
